For one assay, the target named is GI.3 Protruding (norovirus GI.3). The assay can be described thus: ELISA. (In an ELISA, binding on a coated surface is turned into a signal by an enzyme label.)
The target of another assay is GII.13 (norovirus GII.13). The assay can be described thus: ELISA.
A further assay concerns the target GII.17 (norovirus GII.17). In words: ELISA.
Assay [1] addresses GI.3 (norovirus GI.3). The assay can be described thus: ELISA.
The next assay addresses GII.3 (norovirus GII.3). The assay can be described thus: ELISA.
Assay [2] has as its target GI.3 (norovirus GI.3). The assay can be described thus: VLP-PGM blockade.
Assay [3] concerns the target GII.6 (AF414410) VLPs (norovirus GII.6). In words: ELISA.
The target in assay [4] is T1, GII.4 Sydney 2012 shell (S) domain (UniProt P54635 1-221).
T1 chain: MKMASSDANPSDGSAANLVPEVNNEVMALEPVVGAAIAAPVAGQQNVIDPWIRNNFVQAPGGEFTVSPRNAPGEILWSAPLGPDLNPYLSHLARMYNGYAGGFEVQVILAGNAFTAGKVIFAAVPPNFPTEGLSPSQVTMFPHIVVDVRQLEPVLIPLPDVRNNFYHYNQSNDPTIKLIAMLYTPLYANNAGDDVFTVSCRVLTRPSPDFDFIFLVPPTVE
In words: ELISA.

The target of assay [5] is T1, GII.4 Sydney 2012 shell (S) domain. The assay can be described thus: ELISA.
The target in assay [6] is T2, GII.4 Houston 2002 (ABY27560.1) VLPs (UniProt P54635 1-539). In words: VLP blockade.
Assay [7] has as its target T2, GII.4 Houston 2002 (ABY27560.1) VLPs. In words: ELISA binding.
In another assay the target is Protruding domain. The assay can be described thus: ELISA.
Assay [8] addresses T3, GII.4 Houston 2002 VLP (UniProt P54635 1-539). The assay can be described thus: VLP blockade.
Assay [9] deals with T3, GII.4 Houston 2002 VLP. In words: ELISA binding.
Another assay deals with GII.4 Sydney 2012 VLP (UniProt P54635 1-538). In words: VLP-PGM blockade.
For assay [10], the target named is GII.6 (AF414410) VLPs (norovirus GII.6). The assay can be described thus: VLP-PGM blockade.
In the next assay the target is GI.2 (AF435807) VLPs (norovirus GI.2). In words: ELISA.

The text below walks through data of US20210324050A1 (published 2021).

Read-outs that look alike come from different tables or passages of the source.

B1: 310A (antibody, V domains shown)
VH: EVQLVESGGGLVRPGESLRLSCVASGFSVSDNYMSWVRQAPGKGLQWVSVIYSGGTTFYTDSVKGRFTISRDKSKNTLFLQMNSLRAEDTAVYFCTRDPSQYYDSRGHYYQTFTPSFDSWGQGTLVTVSS
VL: DIQMTQSPSVMSASVGDRVTITCRASQDISDYLAWFQQKPGKVPKRLIYAASSLQNGVPSRFSGSGSGTEFTLTISSLQPEDFATYYCLQHDTYPLTFGGGTKVEIK
Consider B1, for which the EC50 (as a rule, the midpoint of the concentration-response curve) is 60 nM with GI.3 Protruding; 53 nM with GII.13; 40 nM with GII.17; 24 nM with GI.3 [1]; 15 nM with GII.3; 192 nM with GI.3 [2].

B2: NORO-310A (antibody, V domains shown)
VH: EVQLVESGGGLVRPGESLRLSCVASGFSVSDNYMSWVRQAPGKGLQWVSVIYSGGTTFYTDSVKGRFTISRDKSKNTLFLQMNSLRAEDTAVYFCTRDPSQYYDSRGHYYQTFTPSFDSWGQGTLVTVSS
VL: DIQMTQSPSVMSASVGDRVTITCRASQDISDYLAWFQQKPGKVPKRLIYAASSLQNGVPSRFSGSGSGTEFTLTISSLQPEDFATYYCLQHDTYPLTFGGGTKVEIK
Take B2: the EC50 in the assay with GII.6 (AF414410) VLPs [3] is 44 nM; in [4], 19 nM; in assay [5], 1.8 µg/mL; in assay [6] it was above 100 µg/mL; in assay [7], 0.6 µg/mL.

B3: 323A (antibody, V domains shown)
VH: QVQLVESGGGVVQPGRSLRLSCAASGFTFSGSSLHWVRQAPGKGLEWVAAISYDGTNTYYADSVKGRFTLSRDNSKNTLYLQMNSLRAEDTAVYYCAKPVLSPFDYWGQGTLVTVSS
VL: QSALTQPASVSGSPGQSITISCTGTSSDVGGYNYVSWYQQHPGKAPKLLIYEVSNRPSGVSRRFSGSKSGNTASLTISGLQAEDEADYYCCSYTSSSTEVFGGGTKLTVL
Turning to B3, the EC50 with GI.3 Protruding amounted to 7 nM; with GI.3 [1] it was 3 nM; with GI.3 [2], 15 nM.

B4: 327A (antibody, V domains shown)
VH: QVQLEVSGGGLVKPGGSLRLSCAASGFTFTDYYMSWIRQAPGKGLEWVAYISGIMSSTKYADSVKGRFTISRDNGKNSVYLQMNSLTAEDTAVYYCARERVEPPSAVTDFWGQGTLVTVSS
VL: QSVLTQSPSVSGAPGQRVTISCTGTSSNIGAGYDVHWYQQFPGTAPKLLISHNTNRPSGVPDRFSGSKSGTSASLAITGLQAEDEADYYCQSFDSSLRGSRVFGGGTKLTVL
Take B4: the EC50 with Protruding domain was 0.5 µg/mL; in the assay with GII.4 Houston 2002 VLP [8] it was 2.2 µg/mL; with GII.4 Houston 2002 VLP [9], 0.3 µg/mL; with GII.4 Sydney 2012 VLP it was 5 µg/mL.

B5: NORO-202A.1 (antibody, V domains shown)
VH: QVQLVQSGAEVKKPGASVKVSCKASEYTFTGYYLQWVRQAPGHGLEWMGWINPSGGTKYSQKFQGRVTMTRDTSITTVYMELSRLRSDDTAVYYCARDLLRNWGDHDAFDVWGQGTMVTVSS
VL: QSVLTQPPSASETPGQGVTISCSGSSSNIGSNFVCWYQQVPGTAPKLLIYKNNQRPSGVPDRFSGSKSGTSASLAISGLRSEDEADYYCSAWDDSLSGPVFGGGTKLTVL
Turning to B5, the EC50 is 3 nM in [4]; 0.2 µg/mL in assay [5]; above 100 µg/mL in [6]; 0.1 µg/mL in assay [7]; 47 nM with GII.6 (AF414410) VLPs [10].

B6: NORO-168.2 (antibody, V domains shown)
VH: QVQLVESGGGVVQPGRSLRLSCAASGFTFSSYAMHWVRQAPGKGLEWVAVISYDGSNKYYADSVKGRFTISRDNSKNTLYLQMNSLRAEDTAVYYCARSVIGYYYYGMDVWGQGTLVTVSS
VL: QPVLTQPPSASASLGASVTLTCTLSSGYSNYKVDWYQQRPGKGPRFVMRVGTGGIVGSKGDGIPDRFSVLGSGLNRYLTIKNIQEEDESDYHCGADHGSGILFGGGTKLTVL
On to B6, for which the EC50 with GII.6 (AF414410) VLPs [3] came to 198 nM; in the assay with GI.2 (AF435807) VLPs, 265 nM; in assay [4], 78 nM; with GII.6 (AF414410) VLPs [10], 7 nM.

B7: 156.3 (antibody, V domains shown)
VH: QVQLQQWGAGLLKPSETLSLTCAVYGGSFSGYYWSWIRQPPGKGLEWIGEINHSGSTNYNPSLKSRVTISVDTSKNQFSLKLSSVTAADTAVYYCARGLMDVWGQGTLVTVSS
VL: AIRMTQSPSSFSASTGDRVTITCRASQGISSYLAWYQQKPGKAPKLLIYAASTLQSGVPSRFSGSGSGTDFTLTISCLQSEDFATYYCQQYYSYPRTFGQGTKLEIK
Regarding B7, the EC50 was 54 nM with GII.13, 90 nM in the assay with GII.17, 47 nM with GI.3 [1] and 678 nM with GI.3 [2].

B8: 246A (antibody, V domains shown)
VH: EVHLVESGGGLVKPGGSLRLSCAASGFTFSRYGMHWVRQAPGKGLEWVSSIVIRSDYKYYADSVKGRFTISRDNAKNSLYLQMNSLRADDTAVYYCARDLVEPGITPVGCDYWGRGTLVTVSS
VL: SNELTQAPSVSVSPGQTARITCFGDALANQYSYWYQRKPGQAPVLVIYKDSERPSGIPQRFSASNSGTTVTLTITGVQAEDEADYFCQSADSTGIYKVFGGGTKLTVL
As for B8, the half-maximal effective concentration (EC50) is 0.9 µg/mL with Protruding domain, 2.1 µg/mL with GII.4 Houston 2002 VLP [8] and 7.4 µg/mL with GII.4 Sydney 2012 VLP.

B9: 232 (antibody, V domains shown)
VH: QVQLKQWGAGLLKSSETLSLTCAFNGNSFGAFYWSWIRLSPGKGLEWIGEVNYLGGADYNPSLKSRVTMSADTSKRQFSLSLKSVTAADTGVYFCARGRPHDYSPGSYSRPRRYYGLDVWGQGTTVTVSS
VL: EIVLTQSPATLSLSPGDSATLSCRASQAVSTTYLAWYQQTRGQAPRLLIHGTYTRAIGIPDKFSGTGSGTDFTLTISGLAPEDFAVYYCQQYSSSPYTFGQGTKIEIT
For the molecule B9, a half-maximal response in the assay with GII.4 Sydney 2012 VLP (EC50) required 4.4 µg/mL.

B10: NORO-279A (antibody, V domains shown)
VH: QVQLVESGGGVVQPGRSLRLSCAASGFTFTKYGMHWVRQAPGKGLEWVAFIAYDGSVKYYGDSAKGRFAISRDNPKNTVYLQMNSLRAEDTAVYYCAKVEIHYYSNSLLGMDVWGQGTLVTVSS
VL: QSVLTQPPSASGTPGQRVTISCSGGNSNIGISYVYWYQHLPGTAPKLLISKNNLRPSGVPDRFSASKSGTSASLAISGLRSEDEAEYYCATLDINMTWVFGGGTKLTVL
On to B10, for which the EC50 in the assay with GII.6 (AF414410) VLPs [3] was 14 nM; in [4] it was 3 nM; in assay [5], 0.4 µg/mL; in [6], above 100 µg/mL; in assay [7], 0.3 µg/mL; with GII.6 (AF414410) VLPs [10], 32 nM.

B11: 178.6 (antibody, V domains shown)
VH: QVQLVESGGGVVQPGRSLRLSCAASGFTFSTYGMNWVRQAPGRGLEWVADISYDGSNSRYADSVKGRFTISRDNSKNTLSLQMNGLRTEDTAVYYCAKDWYLAMAGAAFDSWGPGTLVTVSS
VL: SSELTQDPVVSVALGQTVRITCQGDSLTTFYASWFQQKPGQAPALVLYGNDNRPSGIPDRFSGSRSGNTASLTITGAQAEDEADYYCNSRDSSGKPSFGGGTKLTVL
For the molecule B11, the EC50 was found to be 336 nM with GI.3 Protruding; 18 nM with GII.13; 16 nM with GII.17; 83 nM with GI.3 [1]; 29 nM in the assay with GII.3; 470 nM with GI.3 [2].

B12: NORO-178.6 (antibody, V domains shown)
VH: QVQLVESGGGVVQPGRSLRLSCAASGFTFSTYGMNWVRQAPGRGLEWVADISYDGSNSRYADSVKGRFTISRDNSKNTLSLQMNGLRTEDTAVYYCAKDWYLAMAGAAFDSWGPGTLVTVSS
VL: SSELTQDPVVSVALGQTVRITCQGDSLTTFYASWFQQKPGQAPALVLYGNDNRPSGIPDRFSGSRSGNTASLTITGAQAEDEADYYCNSRDSSGKPSFGGGTKLTVL
Regarding B12, the values for the concentration giving a half-maximal response (EC50) (with GII.6 (AF414410) VLPs [3]; in assay [4]) were 20 nM and 8 nM, respectively.
